Patent publication US20100210525A1 (University of California, published 2010)
Non-standard residues stand in square brackets, D forms with d. No end group written: not given here. pY = N[C@@H](Cc1ccc(OP(=O)(O)O)cc1)C(=O)O

B1: β3/PIPKIγ chimeric peptide, wild type (peptide)
peptide: KKLLITIHDRKEFAKFEEERARAKWV[pY]SPLHYSAR
notes: Integrin β3 tail residues N-terminal of W739, PIPKIγ residues C-terminal of it (numbered 740-746 in the deposited structure); also called β3 chimera; β3-integrin/PIPKIγ peptide
B2: β3/PIPKIγ chimeric peptide F730A (peptide)
peptide: KKLLITIHDRKEFAKAEEERARAKWV[pY]SPLHYSAR
notes: also called β3 chimera F730A; β3-F730A
B3: β3/PIPKIγ chimeric peptide F727A (peptide)
peptide: KKLLITIHDRKEAAKFEEERARAKWV[pY]SPLHYSAR
notes: also called β3 chimera F727A; β3-F727A

Tests used:
Talin F3 W359A [1] = target: T1, Talin F3 W359A (mouse, UniProt P26039 309-405, limits assumed); experiment: ITC
T1 construct: domain: F3 sub-domain; As m1, with the mutation; also called talin (W359A) mutant
Protocol: (§1) Peptide concentrations were typically at 150 to 300 μM while protein concentrations ranged from 25 to 50 μM. For the W359A mutant, the protein concentration was 50 μM and the peptide concentration was 1 mM. Prior to ITC titrations, the peptides and proteins were in buffer consisting of 200 mM Tris, 300 mM NaCl, pH 7.5. All experiments were conducted at 23 degrees Celsius. […] The bottom panel is the binding curve, calculated using the software program Origin.
(§2) Isothermal titration calorimetry (ITC) was performed on a VP-ITC calorimeter (Microcal, Northampton, Mass.). Aliquots (8 μL) of wildtype ([…]p[…]) (SEQ ID NO: 2) or mutant chimeric peptide were injected into the cell containing wildtype or mutant talin F3 domain. Peptide concentrations were typically 150 to 300 μM while protein concentrations ranged from 25 to 50 μM. For the W359A mutant, the protein concentration was 50 μM and the peptide concentration was 1 mM. Prior to ITC titrations, the peptides and proteins were in 200 mM Tris, 300 mM NaCl, pH 7.5. In each experiment 37 injections were made. The experiments were performed at 23° C. All titrations were performed at least twice and with different protein preparations. Experimental data were analyzed using Microcal Origin software.

[2] = target: T2, Talin F3 sub-domain, wild type (mouse, UniProt P26039 309-405, limits assumed); experiment: ITC, peptide injected into talin F3, 23 C, 200 mM Tris, 300 mM NaCl, pH 7.5
T2 construct: domain: F3 sub-domain; U-15N labelled for NMR; also called Talin F3 wt; talin F3 domain
Protocol: as §1, §2

Talin F3 L325R = target: T3, Talin F3 L325R (mouse, UniProt P26039 309-405, limits assumed); experiment: ITC, peptide injected into talin F3 L325R, 23 C, 200 mM Tris, 300 mM NaCl, pH 7.5
T3 construct: domain: F3 sub-domain; As m1, with the mutation
Protocol: as §1, §2

Talin F3 Q381V = target: T4, Talin F3 Q381V (mouse, UniProt P26039 309-405, limits assumed); experiment: ITC, peptide injected into talin F3 Q381V, 23 C, 200 mM Tris, 300 mM NaCl, pH 7.5
T4 construct: domain: F3 sub-domain; As m1, with the mutation
Protocol: as §1, §2

Talin F3 W359A [3] = target: T1, Talin F3 W359A; experiment: ITC, 1 mM peptide injected into 50 µM talin F3 W359A, 23 C, 200 mM Tris, 300 mM NaCl, pH 7.5
Protocol: as §1, §2

T2 sequence (P26039 309-405 limits assumed): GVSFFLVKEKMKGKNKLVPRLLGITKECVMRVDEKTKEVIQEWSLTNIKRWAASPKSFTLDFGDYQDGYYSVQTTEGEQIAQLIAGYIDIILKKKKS
T1 sequence (P26039 309-405 W359A limits assumed): as the sequence (P26039 309-405 limits assumed) above, with W51A counted along it
T4 sequence (P26039 309-405 Q381V limits assumed): as the sequence (P26039 309-405 limits assumed) above, with Q73V counted along it
T3 sequence (P26039 309-405 L325R limits assumed): as the sequence (P26039 309-405 limits assumed) above, with L17R counted along it

| Binder | fold reduction of affinity against wild-type talin F3 (Talin F3 W359A [1]) [fold] | Kd [2] [nM] | Kd (Talin F3 L325R) [nM] | Kd (Talin F3 Q381V) [nM] | Kd (Talin F3 W359A [3]) [nM] |
| --- | --- | --- | --- | --- | --- |
| B1 | ~1000 | 140 | 212 | 135 | 106000 |
| B2 | – | 105 | – | – | – |
| B3 | – | 118 | – | – | – |
